US20160008398A1

Assays:
[1] = biological target: CMV pp65 presented by HLA-A*0201
[2] = biological target: 4-1BB (human) (UniProt Q07011)

Row | Granzyme B density near the immunological synapse (fold reduction) [2] | Substance | T cell expansion after weekly restimulation with HLA-A*0201^+ pp65-transduced Caco-2 tumor cells [1]
1 |  | CMV pp65-specific T lymphocytes (cells without a defined receptor) | 209 fold
2 | 2.02 | dsRed-monomer-4-1 BBL fusion protein (from UniProt P41273) (ligand) | 
